This is an account of results in the Immune Epitope Database (IEDB).

Among the targets are HLA-A*11:01; HLA-A*03:01; HLA-A*31:01; HLA-A*33:01; HLA-A*68:01.
What all share (assay): IEDB peptide-MHC binding, purified MHC/competitive/radioactivity; filed as Kd, often an IC50 or EC50 that approximates it; ≥ and ≤ were set here for values at or beyond the usual limits of such assays
Where [1] appears, read: source organism: Vaccinia virus WR.
Setting [2] is: source organism: Triticum aestivum.
Setting [3] is: source organism: Dengue virus 1 Singapore/S275/1990.
Setting [4] is: source organism: Dengue virus 3 Martinique/1243/1999.
[5] abbreviates: source organism: Dengue virus 2 Jamaica/1409/1983.
Where [6] appears, read: source organism: Mammarenavirus juninense.
Where [7] appears, read: source organism: SARS coronavirus Tor2.
Where [8] appears, read: source organism: Dengue virus 4 Philippines/H241/1956.
[9] abbreviates: source organism: Dengue virus 1 Brazil/97-11/1997.
Where [10] appears, read: source organism: Lymphocytic choriomeningitis virus (strain Armstrong).

IAQYKCVTIK: the Kd is 773 nM in the assay with HLA-A*11:01 (setting [1]); 29.1 nM with HLA-A*03:01 (setting [1]); 5880 nM with HLA-A*31:01 (setting [1]); at least 24100 nM in the assay with HLA-A*33:01 (setting [1]); 5860 nM with HLA-A*68:01 (setting [1]).
For MSHLKVALYR, in that order: 100 nM, 609 nM, 2.25 nM, 66.5 nM and 31.2 nM.
Consider NIISRTRLY, for which the Kd with HLA-A*11:01 (setting [1]) turned out to be 1020 nM; with HLA-A*03:01 (setting [1]) it was 375 nM; with HLA-A*31:01 (setting [1]), 3910 nM; with HLA-A*33:01 (setting [1]), 10200 nM; with HLA-A*68:01 (setting [1]), 879 nM.
For DLIAMENLK, the Kd in the assay with HLA-A*11:01 (setting [1]) is 1350 nM; with HLA-A*03:01 (setting [1]), at least 33500 nM; in the assay with HLA-A*31:01 (setting [1]), 19500 nM; with HLA-A*33:01 (setting [1]) it was 586 nM; with HLA-A*68:01 (setting [1]) it was 16.2 nM.
On to VVLQQHNIVH, for which the Kd in the assay with HLA-A*11:01 (setting [2]) was 4630 nM; with HLA-A*03:01 (setting [2]), 2020 nM; with HLA-A*31:01 (setting [2]) it was 5200 nM; with HLA-A*33:01 (setting [2]), at least 28300 nM; with HLA-A*68:01 (setting [2]), at least 29600 nM.
In the case of RIMQRGLLGR, the Kd in the assay with HLA-A*03:01 (setting [3]) came out at 5.56 nM; in the assay with HLA-A*31:01 (setting [3]), 1.16 nM.
Consider KSGGLSSGFY, for which the Kd with HLA-A*11:01 (setting [1]) was 5210 nM; with HLA-A*03:01 (setting [1]), 2570 nM; in the assay with HLA-A*31:01 (setting [1]), at least 70000 nM; with HLA-A*33:01 (setting [1]), at least 70000 nM; with HLA-A*68:01 (setting [1]) it was at least 70200 nM.
As for MKNKAWMVHR, in the assay with HLA-A*31:01 (setting [4]), the Kd was determined as 140 nM.
On to ETAKVIKLVK, for which the Kd is 192 nM with HLA-A*11:01 (setting [1]); 1610 nM with HLA-A*03:01 (setting [1]); 9310 nM with HLA-A*31:01 (setting [1]); at least 70000 nM with HLA-A*33:01 (setting [1]); 21.4 nM in the assay with HLA-A*68:01 (setting [1]).
For FLLFLEITY, in that order: 15900 nM, 10500 nM, 160 nM, 7170 nM and 1900 nM.
For the sequence TAMAFHLTTR, the Kd with HLA-A*31:01 (setting [5]) is 9.04 nM; in the assay with HLA-A*33:01 (setting [5]), 18.4 nM; with HLA-A*68:01 (setting [5]) it was 8.55 nM.
In the case of TGINENYAK, the Kd in the assay with HLA-A*11:01 (setting [6]) is 1530 nM; with HLA-A*03:01 (setting [6]), at least 78000 nM; in the assay with HLA-A*31:01 (setting [6]), at least 53400 nM; in the assay with HLA-A*33:01 (setting [6]) it was at least 77700 nM; with HLA-A*68:01 (setting [6]), 998 nM.
As for RSIAMLKSK, the Kd with HLA-A*11:01 (setting [1]) is 3.11 nM; with HLA-A*03:01 (setting [1]), 216 nM; with HLA-A*31:01 (setting [1]), 1500 nM; with HLA-A*33:01 (setting [1]), at least 77700 nM; with HLA-A*68:01 (setting [1]), 637 nM.
For ILSDENYLLK, in that order: 29 nM, 57.5 nM, 17000 nM, 14400 nM and 2530 nM.
Consider STAWLCALGK, for which the Kd in the assay with HLA-A*11:01 (setting [7]) worked out at 0.35 nM; with HLA-A*03:01 (setting [7]), 21.6 nM; with HLA-A*31:01 (setting [7]), 271 nM; with HLA-A*33:01 (setting [7]) it was 9430 nM; with HLA-A*68:01 (setting [7]), 4.8 nM.
For the sequence TTRLENIMWK, the Kd with HLA-A*11:01 (setting [8]) turned out to be 271 nM.
For the sequence LIVSLCPTK, the Kd was found to be 107 nM with HLA-A*11:01 (setting [1]); 8400 nM with HLA-A*03:01 (setting [1]); 14200 nM with HLA-A*31:01 (setting [1]); 1440 nM with HLA-A*33:01 (setting [1]); 75.4 nM in the assay with HLA-A*68:01 (setting [1]).
For DLLNSMMNR, in that order: 14800 nM, 2210 nM, 42.3 nM, 4.04 nM and 35.9 nM.
For SLIKTILASY, in that order: 1050 nM, 97.5 nM, 4570 nM, at least 43300 nM and 1730 nM.
For DSMDVLAEKK, in that order: 762 nM, 343 nM, 1000 nM, 3540 nM and 1.68 nM.
On to KIIHEWCCR, for which the equilibrium dissociation constant (Kd) in the assay with HLA-A*31:01 (setting [9]) was at least 59300 nM.
Regarding VMCGGSLYVK, the Kd with HLA-A*11:01 (setting [7]) was 46.6 nM; in the assay with HLA-A*03:01 (setting [7]), 58.4 nM; with HLA-A*31:01 (setting [7]), 648 nM; with HLA-A*33:01 (setting [7]), 16300 nM; with HLA-A*68:01 (setting [7]), 8480 nM.
For the sequence GLTSRATWAK, the Kd in the assay with HLA-A*03:01 (setting [5]) was determined as 52.3 nM.
STGNYNYKYR: the Kd stood at 1380 nM in the assay with HLA-A*11:01 (setting [7]); 2760 nM in the assay with HLA-A*03:01 (setting [7]); 34.7 nM with HLA-A*31:01 (setting [7]); 1090 nM with HLA-A*33:01 (setting [7]); 244 nM with HLA-A*68:01 (setting [7]).
Regarding KSTELIRRVR, the Kd with HLA-A*11:01 (setting [1]) is at least 20200 nM; with HLA-A*03:01 (setting [1]), at least 70100 nM; in the assay with HLA-A*31:01 (setting [1]), 15 nM; in the assay with HLA-A*33:01 (setting [1]), 1930 nM; with HLA-A*68:01 (setting [1]) it was 901 nM.
The matching figures for TMKAIEKDR: 2620 nM, at least 25900 nM, 227 nM, 675 nM and 511 nM.
Consider STLLTWHMH, for which the dissociation constant Kd with HLA-A*11:01 (setting [10]) is 258 nM; in the assay with HLA-A*03:01 (setting [10]) it was at least 38200 nM; with HLA-A*31:01 (setting [10]), 4490 nM; with HLA-A*33:01 (setting [10]) it was at least 77700 nM; in the assay with HLA-A*68:01 (setting [10]), 2720 nM.
TTRLENVMWK: the Kd with HLA-A*11:01 (source organism: Dengue virus 4 Dominica/814669/1981) was 590 nM.
Turning to VFYRSGTETK, the Kd is at least 34100 nM with HLA-A*11:01 (setting [1]); at least 33800 nM in the assay with HLA-A*03:01 (setting [1]); 8280 nM with HLA-A*31:01 (setting [1]); 6530 nM in the assay with HLA-A*33:01 (setting [1]); at least 20400 nM in the assay with HLA-A*68:01 (setting [1]).
With NLKSLLLENK, the Kd in the assay with HLA-A*11:01 (setting [1]) is 63.4 nM; in the assay with HLA-A*03:01 (setting [1]) it was 88.8 nM; with HLA-A*31:01 (setting [1]) it was 1060 nM; with HLA-A*33:01 (setting [1]), 2160 nM; with HLA-A*68:01 (setting [1]), 137 nM.
For SLFYTFAISY, in that order: 9.18 nM, 3.62 nM, 5780 nM, at least 31800 nM and 1320 nM.
The matching figures for AISSRVDRY: 164 nM, 5010 nM, 18700 nM, at least 77700 nM and 4740 nM.
Take YSYATHHDK: the Kd with HLA-A*11:01 (setting [7]) was 30.5 nM; with HLA-A*03:01 (setting [7]), 16.4 nM; in the assay with HLA-A*31:01 (setting [7]) it was 3470 nM; with HLA-A*33:01 (setting [7]), at least 26200 nM; with HLA-A*68:01 (setting [7]), 16.3 nM.
As for TAASAAQRR, in the assay with HLA-A*68:01 (setting [4]), the Kd was 24.9 nM.
Regarding VLCVKKFYK, the Kd amounted to 8.82 nM with HLA-A*11:01 (setting [1]); 25.2 nM in the assay with HLA-A*03:01 (setting [1]); 1.32 nM with HLA-A*31:01 (setting [1]); 162 nM with HLA-A*33:01 (setting [1]); 344 nM in the assay with HLA-A*68:01 (setting [1]).
For the sequence RNKKPRICTR, in the assay with HLA-A*31:01 (setting [9]), the Kd was at least 70000 nM.
VTCAMFTCKK: the Kd in the assay with HLA-A*11:01 (setting [5]) was 97.7 nM; in the assay with HLA-A*03:01 (setting [5]) it was 86.7 nM.
Regarding TSADLTVEK, the Kd with HLA-A*11:01 (setting [4]) turned out to be 185 nM; with HLA-A*68:01 (setting [4]), 15.5 nM.
TAVAPSMTMR: the Kd with HLA-A*68:01 (setting [5]) turned out to be 18.8 nM.
In the case of NMLNIMNRR, the Kd with HLA-A*31:01 (setting [3]) was 5350 nM; with HLA-A*33:01 (setting [3]), 13.3 nM.
Consider GTLGLECSPR, for which the figures for the Kd with HLA-A*33:01 (setting [4]) and with HLA-A*68:01 (setting [4]) were 23.6 nM and 106 nM, respectively.
As to MSTYGWNLVR, in the assay with HLA-A*68:01 (setting [5]), the Kd came out at 24.9 nM.
Take SSKIRWIVER: the Kd with HLA-A*31:01 (setting [8]) turned out to be 17.1 nM; in the assay with HLA-A*33:01 (setting [8]), 389 nM.
Regarding ETNMITLLVK, the Kd with HLA-A*11:01 (setting [8]) stood at 1080 nM.
For the sequence EGVYRIMQR, the Kd in the assay with HLA-A*68:01 (setting [8]) came out at 215 nM.
For IVSSVNMISR, the Kd with HLA-A*33:01 (setting [5]) turned out to be 88.5 nM; with HLA-A*68:01 (setting [5]) it was 16.2 nM.
Take KSLVSAGSGK: the Kd with HLA-A*03:01 (setting [4]) was 3.41 nM.
Consider VSIMIEEVMR, for which the Kd with HLA-A*68:01 (setting [9]) was found to be 202 nM.
For the sequence ISNITTATR, the Kd with HLA-A*31:01 (setting [8]) was 72.7 nM.
Turning to SYTQVCDHR, the dissociation constant Kd in the assay with HLA-A*33:01 (source organism: Dengue virus 1 Nauru/West Pac/1974) stood at 43.2 nM.
AMAFHLTTR: the values for the Kd with HLA-A*03:01 (setting [5]) and with HLA-A*31:01 (setting [5]) were 56.3 nM and 1.57 nM, respectively.
Regarding LMTLMKGASK, the Kd in the assay with HLA-A*03:01 (setting [8]) was determined as 273 nM.
For the sequence SSMLNIMNR, the Kd amounted to 10.4 nM with HLA-A*11:01 (setting [9]), 11800 nM with HLA-A*31:01 (setting [9]) and 7.35 nM with HLA-A*68:01 (setting [9]).
With LTLFVEECLR, the Kd was 60.7 nM with HLA-A*33:01 (setting [8]) and 56.2 nM in the assay with HLA-A*68:01 (setting [8]).
In the case of TSIFAGHLK, the Kd with HLA-A*11:01 (setting [4]) stood at 39.1 nM; in the assay with HLA-A*68:01 (setting [4]), 4.3 nM.

In general, Kd refers to the equilibrium constant for the complex coming apart.
